Test results: PMC2953525, “Subtle Alterations in PCNA-Partner Interactions Severely Impair DNA Replication and Repair” (PLoS Biology, 2010)
Changes are numbered by the printed parent chain.

B1: pol30-Msh6E6: PCNA mutant evolved for Msh6, IDCL sequence DYDKDLLKIIEL (protein)
chain: MLEAKFEEASLFKRIIDGFKDCVQLVNFQCKEDGIIAQAVDDSRVLLVSLEIGVEAFQEYRCDHPVTLGMDLTSLSKILRCGNNTDTLTLIADNTPDSIILLFEDTKKDRIAEYSLKLMDYDKDLLKIIELQYDSTLSLPSSEFSKIVRDLSQLSDSINIMITKETIKFVADGDIGSGSVIIKPFVDMEHPETSIKLEMDQPVDLTFGAKYLLDIIKGSSLSDRVGIRLSSEAPALFQFDLKSGFLQFFLAPKFNDEE
modifications: left off: Gal4 activation domain, end not stated, kept
B2: pol30-Pol32E9 (protein)
chain: B1 chain with Y121N, K123V, L125S
modifications: left off: Gal4 activation domain, end not stated, kept
B3: pol30-79: previously studied PCNA mutant with decreased partner binding, IDCL sequence DIDADFAKAEEL (protein)
chain: B1 chain with Y121I, K123A, L125F, L126A, I128A, I129E
modifications: left off: Gal4 activation domain, end not stated, kept
B4: pol30-Rad30E2: PCNA mutant evolved for Rad30, IDCL sequence DDDWDFLKILEL (protein)
chain: B1 chain with Y121D, K123W, L125F, I129L
modifications: left off: Gal4 activation domain, end not stated, kept
B5: pol30-Msh6E2: PCNA mutant evolved for Msh6, IDCL sequence DYDRDMLKISEL (protein)
chain: B1 chain with K123R, L125M, I129S
modifications: left off: Gal4 activation domain, end not stated, kept

Tests used:
Assay in all cases: Yeast two hybrid (Y2H) analysis of PCNA-partner interaction
Assay type in all cases: binding
[1] = system: Rad27; details: for Binding of PCNA Mutants to Target Partners: Rad27, fold increase or decrease (quantitative Y2H): footnote c: generation time in liquid selective media lacking histidine relative to cells expressing WT PCNA, average of at least 3 independent experiments
Procedure: (§1) For the Y2H assay, we used the YRG2 host strain, shown to be highly efficient in coupling the strength of protein-protein interactions with growth on media lacking histidine. Selected PCNA mutants were characterized for their ability to bind each of 12 main PCNA partners to obtain specificity profiles (Table 1, Table S1, and Figures S4–S5). […] However, in some cases a strong trade-off between the bindings of different partners was observed.
(§2) Y2H analysis was performed using the Yeast Two Hybrid Phagemid vector kit (Stratagene), following the manufacturer's instructions. The pAD-PCNA-WT/mutant plasmids were used as bait while plasmids encoding 12 different PCNA partners (Table 1 and Table S1) were used as prey. The YRG2 host strain (Stratagene) was cotransformed with pAD-PCNA WT/mutant and pBD-partner plasmids in all possible combinations using the LiAC method. Single transformants were grown in liquid SC-Leu-Trp to O.D600 10, washed twice with DDW, and diluted to an initial OD600 of 0.3. A series of 10-fold serial dilutions was then spotted onto selective SC-Leu-Trp-His plates and incubated at 30°C for 3 d. For quantitative Y2H, the generation time of the indicated mutants and their respective partners were calculated from their growth curves in liquid SC-Leu-Trp-His media. Cells were grown overnight in SC-Leu-Trp, washed twice with ddH2O, and diluted by a factor of 1∶50 into 10 ml of pre-warmed SC-Leu-Trp-His. O.D600 measurements of the cultures were taken at the indicated time; the generation time (τ) was calculated from the growth curves according to the equation ODt = OD0×2^t/τ. The generation time calculated for each culture is an average of at least 3 independent experiments.

[2] = system: Pol32; details: for Binding of PCNA Mutants to Target Partners: Pol32 (Y2H): YRG2 strain, growth on selective agar plates lacking histidine, growth similar to WT PCNA denoted as 1; for Binding of PCNA Mutants to Target Partners: Pol32, fold increase or decrease (quantitative Y2H): footnote c: generation time in liquid selective media lacking histidine relative to cells expressing WT PCNA, average of at least 3 independent experiments
Procedure: as §1, §2

[3] = system: Rad30; details: for Binding of PCNA Mutants to Target Partners: Rad30 (Y2H): YRG2 strain, growth on selective agar plates lacking histidine, growth similar to WT PCNA denoted as 1; for Binding of PCNA Mutants to Target Partners: Rad30, fold increase or decrease (quantitative Y2H): footnote c: generation time in liquid selective media lacking histidine relative to cells expressing WT PCNA, average of at least 3 independent experiments
Procedure: as §1, §2

[4] = system: Ung1; details: for Binding of PCNA Mutants to Target Partners: Ung1 (Y2H): YRG2 strain, growth on selective agar plates lacking histidine, growth similar to WT PCNA denoted as 1
Procedure: as §1, §2

[5] = system: Msh6; details: for Binding of PCNA Mutants to Target Partners: Msh6 (Y2H): YRG2 strain, growth on selective agar plates lacking histidine, growth similar to WT PCNA denoted as 1; for Binding of PCNA Mutants to Target Partners: Msh6, fold increase or decrease (quantitative Y2H): footnote c: generation time in liquid selective media lacking histidine relative to cells expressing WT PCNA, average of at least 3 independent experiments
Procedure: as §1, §2

[6] = system: Rrm3; parameters: key: ++: major increase in growth; +: moderate increase in growth; similar growth as the WT PCNA-expressing cells; -: minor decrease in growth; --: moderate decrease in growth; ---: major decrease in growth; details: spotting onto selective agar plates; PCNA fused to AD, partner to BD
Procedure: as §2
(§3) Table S1: Yeast two hybrid analysis of binding of selected PCNA mutants with seven additional partners not described in Table 1 of the main text. […]
(§4) pol30-Rad30E2 WT WT WT WT WT WT - pol30-Rad30E9 WT WT WT WT WT WT WT pol30-Rad27E6 WT WT WT WT + WT WT pol30-Rad27E31 WT WT WT WT + WT WT pol30-Rad27L1 WT -- WT WT -- WT WT pol30-Rad27L2 WT -- WT WT -- WT WT pol30-Pol32E5 WT WT WT WT WT WT WT pol30-Pol32E9 - WT WT WT WT WT WT pol30-Msh6E2 WT WT + WT WT WT WT pol30-Msh6E6 WT WT ++ WT WT WT WT pol30-Ung1E3 WT - WT WT WT WT WT pol30-79 --- --- --- - --- --- --- a PCNA mutants with enhanced affinities for the different target partners (see Table 1, text). b PCNA mutants were fused to the activating domain (AD), while the different partners were fused to the DNA-binding domain (BD). The growth of the resulting Y2H strains was compared to the growth of the WT PCNA-expressing strain following spotting onto selective agar plates (see Material and Methods). Growth rates on the agar plates were scored and tabulated as follows: ++ major increase in growth; + moderate increase in growth; WT-similar growth as the WT PCNA-expressing cells; - minor decrease in growth; -- moderate decrease in growth; --- major decrease in growth. ND-Not determined.

[7] = system: Msh3; parameters: key: ++: major increase in growth; +: moderate increase in growth; similar growth as the WT PCNA-expressing cells; -: minor decrease in growth; --: moderate decrease in growth; ---: major decrease in growth; details: spotting onto selective agar plates; PCNA fused to AD, partner to BD
Procedure: as §2, §3, §4

[8] = system: Eco1; parameters: key: ++: major increase in growth; +: moderate increase in growth; similar growth as the WT PCNA-expressing cells; -: minor decrease in growth; --: moderate decrease in growth; ---: major decrease in growth; details: spotting onto selective agar plates; PCNA fused to AD, partner to BD
Procedure: as §2, §3, §4

[9] = system: Rfc1; parameters: key: ++: major increase in growth; +: moderate increase in growth; similar growth as the WT PCNA-expressing cells; -: minor decrease in growth; --: moderate decrease in growth; ---: major decrease in growth; details: spotting onto selective agar plates; PCNA fused to AD, partner to BD
Procedure: as §2, §3, §4

[10] = system: Apn2; parameters: key: ++: major increase in growth; +: moderate increase in growth; similar growth as the WT PCNA-expressing cells; -: minor decrease in growth; --: moderate decrease in growth; ---: major decrease in growth; details: spotting onto selective agar plates; PCNA fused to AD, partner to BD
Procedure: as §2, §3, §4

[11] = system: Cdc9; parameters: key: ++: major increase in growth; +: moderate increase in growth; similar growth as the WT PCNA-expressing cells; -: minor decrease in growth; --: moderate decrease in growth; ---: major decrease in growth; details: spotting onto selective agar plates; PCNA fused to AD, partner to BD
Procedure: as §2, §3, §4

[12] = system: Cac1; parameters: key: ++: major increase in growth; +: moderate increase in growth; similar growth as the WT PCNA-expressing cells; -: minor decrease in growth; --: moderate decrease in growth; ---: major decrease in growth; details: spotting onto selective agar plates; PCNA fused to AD, partner to BD
Procedure: as §2, §3, §4

Molecule	Binding of PCNA Mutants to Target Partners: Rad27 (Y2H) ([1]; YRG2 strain, growth on selective agar plates lacking histidine, growth similar to WT PCNA denoted as 1)	Binding of PCNA Mutants to Target Partners: Pol32 (Y2H) [2]	Binding of PCNA Mutants to Target Partners: Rad30 (Y2H) [3]	Binding of PCNA Mutants to Target Partners: Ung1 (Y2H) [4]	Binding of PCNA Mutants to Target Partners: Msh6 (Y2H) [5]	Y2H growth relative to WT PCNA-expressing strain: Rrm3 [6]	Y2H growth relative to WT PCNA-expressing strain: Msh3 [7]	Y2H growth relative to WT PCNA-expressing strain: Eco1 [8]	Y2H growth relative to WT PCNA-expressing strain: Rfc1 [9]	Y2H growth relative to WT PCNA-expressing strain: Apn2 [10]	Y2H growth relative to WT PCNA-expressing strain: Cdc9 [11]	Y2H growth relative to WT PCNA-expressing strain: Cac1 [12]	Binding of PCNA Mutants to Target Partners: Msh6, fold increase or decrease (quantitative Y2H) [5]	Binding of PCNA Mutants to Target Partners: Pol32, fold increase or decrease (quantitative Y2H) [2]	Binding of PCNA Mutants to Target Partners: Rad27, fold increase or decrease (quantitative Y2H) [1]	Binding of PCNA Mutants to Target Partners: Rad30, fold increase or decrease (quantitative Y2H) [3]	Binding of PCNA Mutants to Target Partners: Ung1, fold increase or decrease (quantitative Y2H) ([4]; footnote c: generation time in liquid selective media lacking histidine relative to cells expressing WT PCNA, average of at least 3 independent experiments)
POL30: wild-type yeast PCNA (POL30), IDCL sequence DIDADFLKIEEL	1	1	1	1	1												
B1		1	1	1		WT	++	WT	WT	WT	WT	WT	1.4 fold				
B2			1	1	1	WT	WT	WT	WT	WT	-	WT		1.3 fold			
B3						---	---	---	-	---	---	---	0.4 ^c fold	0.3 ^c fold	0.5 ^c fold	0.4 ^c fold	0.3 ^c fold
B4				1	1	WT	WT	WT	WT	-	WT	WT		0.4 ^c fold	0.4 ^c fold	1.4 ^c fold	
B5		1	1	1		WT	+	WT	WT	WT	WT	WT	1.4 ^c fold				
